The labels stand for the following.
B1: mCD137-mFc-Avi (Fc fusion)
chain: VQNSCDNCQPGTFCRKYNPVCKSCPPSTFSSIGGQPNCNICRVCAGYFRFKKFCSSTHNAECECIEGFHCLGPQCTRCEKDCRPGQELTKQGCKTCSLGTFNDQNGTGVCRPWTNCSLDGRSVLKTGTTEKDVVCGPPVVSFSPSTTISVTPEGGPGGHSLQVL
notes: also called mouse CD137-mFc-Avi; mouse dimeric CD137; not shown: mouse IgG2a Fc domain (mIgG2a Fc)
B2: FS22m-063 in HeID1.3 mock mAb^2 format (bispecific antibody)
heavy: QVQLQESGPGLVRPSQTLSLTCTVSGSTFSGYGVNWVRQPPGRGLEWIGMIWGDGNTDYNSALKSRVTMLVDTSKNQFSLRLSSVTAADTAVYYCARERDYRLDYWGQGSLVTVSSASTKGPSVFPLAPSSKSTSGGTAALGCLVKDYFPEPVTVSWNSGALTSGVHTFPAVLQSSGLYSLSSVVTVPSSSLGTQTYICNVNHKPSNTKVDKKVEPKSCDKTHTCPPCPAPELLGGPSVFLFPPKPKDTLMISRTPEVTCVVVDVSHEDPEVKFNWYVDGVEVHNAKTKPREEQYNSTYRVVSVLTVLHQDWLNGKEYKCKVSNKALPAPIEKTISKAKGQPREPQVYTLPPSRDEPYWSYVSLTCLVKGFYPSDIAVEWESNGQPENNYKTTPPVLDSDGSFFLYSKLTVMNYRWELGNVFSCSVMHEALHNHYTQKSLSLSPG
light: DIQMTQSPASLSASVGETVTITCRASGNIHNYLAWYQQKQGKSPQLLVYNAKTLADGVPSRFSGSGSGTQYSLKINSLQPEDFGSYYCQHFWSTPRTFGGGTKLEIKRTVAAPSVFIFPPSDEQLKSGTASVVCLLNNFYPREAKVQWKVDNALQSGNSQESVTEQDSKDSTYSLSSTLTLSKADYEKHKVYACEVTHQGLSSPVTKSFNRGEC
notes: anti-mouse CD137 Fcab
B3: FS22-053-017 in HeID1.3 mock mAb^2 format (bispecific antibody)
heavy: QVQLQESGPGLVRPSQTLSLTCTVSGSTFSGYGVNWVRQPPGRGLEWIGMIWGDGNTDYNSALKSRVTMLVDTSKNQFSLRLSSVTAADTAVYYCARERDYRLDYWGQGSLVTVSSASTKGPSVFPLAPSSKSTSGGTAALGCLVKDYFPEPVTVSWNSGALTSGVHTFPAVLQSSGLYSLSSVVTVPSSSLGTQTYICNVNHKPSNTKVDKKVEPKSCDKTHTCPPCPAPELLGGPSVFLFPPKPKDTLMISRTPEVTCVVVDVSHEDPEVKFNWYVDGVEVHNAKTKPREEQYNSTYRVVSVLTVLHQDWLNGKEYKCKVSNKALPAPIEKTISKAKGQPREPQVYTLPPSRDELNPPYLFSNQVSLTCLVKGFYPSDIAVEWESNGQPENNYKTTPPVLDSDGSFFLYSKLTVYHWRWLEGNVFSCSVMHEALHNHYTQKSLSLSPG
light: B2 light
notes: FS22-053-014 with D98E (IMGT, CH3); range 1-339 derived by counting; also called FS22-053-17
B4: FS22-053-014/HeID1.3 (bispecific antibody, human IgG1, kappa)
heavy: B3 heavy with E423D
light: B2 light
notes: mock mAb^2; also called FS22-053-014 (mock mAb^2 format); FS22-053-14

Residue numbers refer to the chain shown, from its start. In names and notes the source's numbering stands.

Assay [1] addresses T1, mouse CD137 ligand on DO11.10 cells (mouse, UniProt P41274 1-309).
T1 construct: whole, on cells
T1 sequence (looked up): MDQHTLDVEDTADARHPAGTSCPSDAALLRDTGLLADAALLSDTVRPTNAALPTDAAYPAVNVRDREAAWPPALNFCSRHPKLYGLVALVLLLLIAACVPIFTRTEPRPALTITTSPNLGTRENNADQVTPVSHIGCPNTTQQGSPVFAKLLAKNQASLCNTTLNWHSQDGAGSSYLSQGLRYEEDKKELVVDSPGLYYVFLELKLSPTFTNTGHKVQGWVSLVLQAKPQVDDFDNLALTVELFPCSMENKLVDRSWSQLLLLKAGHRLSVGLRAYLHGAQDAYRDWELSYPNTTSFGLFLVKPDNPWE
In words: flow cytometry, anti mouse Fc detection. Here is the method: In more detail, materials from the same production lot were mixed together and analysed for stability and purity by size-exclusion high-performance liquid chromatography (SE-HPLC), SDS polyacrylamide gel electrophoresis (SDS-PAGE), and size-exclusion chromatography with multi-angle light scattering (SEC-MALS). […] Cells were incubated with the CD137 antigens for 1 hour, and then a fluorescently-labelled anti mouse Fc fragment antibody was used to detect cell binding.
Background: In flow cytometry, cells or beads pass a laser one at a time.

Assay [2] addresses T2, mouse CD137, cell-surface (mouse, UniProt P20334 24-256). In words: cell-based or functional assay.
The target of assay [3] is T3, mouse GITR (R&D Systems, biotinylated) (mouse, UniProt O35714 22-153, limits assumed, biotinylated).
T3 sequence (looked up): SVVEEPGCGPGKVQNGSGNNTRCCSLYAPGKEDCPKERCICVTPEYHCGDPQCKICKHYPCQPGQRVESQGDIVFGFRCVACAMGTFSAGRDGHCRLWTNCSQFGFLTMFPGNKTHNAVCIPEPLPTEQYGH
In words: BLI (Octet), biotinylated receptor on streptavidin sensors. The protocol: (§1) The specificity of the anti-mouse CD137 Fcabs for mouse CD137 was tested in HeID1.3 “mock” mAb² format and measured by BLI in an Octet QKe system by testing for binding of the Fcabs to other mouse TNFRSF receptors (CD40, OX40, GITR). […] Anti-mouse CD137 Fcabs in mock mAb² format were diluted 1:1 in kinetic buffer (PALL 18-1092) to a final concentration of at least 1 μM. Antigen-coated sensors were dipped into the mAb² solutions for 180 seconds followed by 180 seconds in 1×kinetic buffer. Antibodies for each of the TNFRSF receptors were used as positive controls.

Assay [4] addresses mouse CD40 (R&D Systems, biotinylated) (mouse, UniProt P27512 24-193, limits assumed, biotinylated). The description is as above. Here is the method:
as §1

The target of assay [5] is T2, mouse CD137, cell-surface. Briefly: cell-based or functional assay. The source holds these as a separate data set.
Assay [6] deals with B1. Briefly: SPR (Biacore T200). In general terms: In SPR one partner is held on a chip, and binding of the other changes the refractive index at the surface.
Another assay concerns the target T4, human GITR (human, UniProt Q9Y5U5 26-161, limits assumed).
T4 sequence (looked up): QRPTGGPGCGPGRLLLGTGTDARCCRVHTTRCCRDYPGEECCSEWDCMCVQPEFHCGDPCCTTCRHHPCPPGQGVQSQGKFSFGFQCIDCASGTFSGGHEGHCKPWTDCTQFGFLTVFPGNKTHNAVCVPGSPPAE
In words: SPR, receptor amine-coupled to CM5 (~1000 RU). The protocol:
(§2) The specificity of the anti-human CD137 Fcabs for human CD137 compared to other related TNFSFR family members was tested. 8 of the Fcabs were tested in mock mAb² (HeID1.3) format and measured by SPR in a Biacore T200 (GE Healthcare) by testing for binding to other human TNFRSF receptors: CD40, OX40 and GITR. Amine coupling (amine coupling kit, GE Healthcare, BR-1000-50) was used to coat human CD40, GITR and OX40 to approximately 1000 RU in Biacore CM5 chips (GE Healthcare, cat no 29149603). […] The chip was regenerated by injection of 10 mM glycine pH 2.5 for 12 s at 30 μl/min. Antibodies specific to the different TNFRSF members were used as positive controls to verify Biacore chip coating. Data was double reference subtracted and analysed using BIAevaluation 3.2 software.

The target in a further assay is T5, human OX40 (human, UniProt P43489 29-216).
T5 sequence (looked up): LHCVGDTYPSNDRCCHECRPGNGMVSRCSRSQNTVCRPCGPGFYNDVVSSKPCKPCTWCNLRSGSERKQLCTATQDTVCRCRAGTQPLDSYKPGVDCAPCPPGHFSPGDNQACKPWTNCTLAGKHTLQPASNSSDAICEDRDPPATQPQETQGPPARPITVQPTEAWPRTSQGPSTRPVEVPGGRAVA
Briefly: SPR, receptor amine-coupled to CM5 (~1000 RU). The protocol: as §2

Another assay deals with human CD40 (human, UniProt P25942 21-193, limits assumed). In words: SPR, receptor amine-coupled to CM5 (~1000 RU). The protocol:
as §2

Another assay addresses T6, hCD137-mFc-Avi (human; mouse, UniProt Q07011 24-186, biotin on the Avi sequence where the biotinylated form was used).
T6 construct: also called human CD137-mFc-Avi; dimeric human CD137; not shown: mouse IgG2a Fc domain (mIgG2a Fc)
Briefly: SPR, mAb^2 captured by anti-human Fab, antigen in flow, 1:1 Langmuir fit. The protocol: (§3) An anti-human Fab capture antibody was immobilised on all four flow cells of a CM5 series S chip (GE Healthcare #BR-1005-30) to an average surface density of 6000 RU following the manufacturer's recommendations (GE Healthcare, human Fab capture Kit, #28958325). […] Each mAb² was captured to approximately 150 RU by injecting a 3 μg/ml solution of mAb² diluted in HBS-EP+ buffer (GE Healthcare #BR1006-69) for 60 seconds at 30 μl/min. Then different concentrations of human, cyno or mouse CD137 antigen (unbiotinylated human, cyno or mouse CD137-mFc-Avi or human CD137-Avi-His) in HBS-EP+ buffer were flowed over the chip for 3 min at 60 μl/min and then allowed to dissociate for 10 minutes. After each antigen concentration the chip was regenerated by infecting 10 mM glycine pH 2.1 at a flow rate of 30 μl/min for 30 seconds. Buffer HBS-EP+ was injected before the highest concentration of antigen and after the lowest concentration of antigen for reference subtraction, and one of the concentrations at random was repeated twice. The binding kinetics were fit with a 1:1 Langmuir model to generate equilibrium binding constants (KD) for each sample. Data analysis was performed with BiaEvaluation software version 3.2.

The target in assay [7] is B1. The assay is described as above. The protocol: as §3
The target of a further assay is T7, hCD137-Avi-His (human, UniProt Q07011 24-186).
T7 construct: also called human CD137-Avi-His; monomeric human CD137
T7 sequence (Q07011 24-186): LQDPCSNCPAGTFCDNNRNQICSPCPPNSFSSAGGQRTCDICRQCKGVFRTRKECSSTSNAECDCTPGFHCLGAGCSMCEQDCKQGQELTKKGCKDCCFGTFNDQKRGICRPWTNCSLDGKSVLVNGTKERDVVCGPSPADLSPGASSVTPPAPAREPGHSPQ
The description is as above. The protocol: as §3

The next assay concerns the target T8, cCD137-mFc-Avi (cynomolgus; mouse).
T8 construct: also called cynomolgus CD137-mFc-Avi; Cyno CD137-mFc-Avi; not shown: mouse IgG2a Fc domain (mIgG2a Fc)
T8 chain: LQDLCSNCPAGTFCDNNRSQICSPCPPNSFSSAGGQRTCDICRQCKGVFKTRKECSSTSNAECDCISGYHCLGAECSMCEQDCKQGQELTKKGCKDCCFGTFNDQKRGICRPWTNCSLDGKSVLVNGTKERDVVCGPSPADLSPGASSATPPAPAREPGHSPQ
The assay is described as above. Here is the method:
as §3

human CD40, sequence (P25942 21-193 limits assumed): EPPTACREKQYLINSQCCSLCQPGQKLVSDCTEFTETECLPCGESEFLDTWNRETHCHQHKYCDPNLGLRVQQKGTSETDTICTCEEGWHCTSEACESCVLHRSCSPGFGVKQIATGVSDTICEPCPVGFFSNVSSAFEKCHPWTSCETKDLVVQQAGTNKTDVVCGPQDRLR
T6 sequence (Q07011 24-186): as the sequence (Q07011 24-186) above
mouse CD40 (R&D Systems, biotinylated), sequence (P27512 24-193 limits assumed): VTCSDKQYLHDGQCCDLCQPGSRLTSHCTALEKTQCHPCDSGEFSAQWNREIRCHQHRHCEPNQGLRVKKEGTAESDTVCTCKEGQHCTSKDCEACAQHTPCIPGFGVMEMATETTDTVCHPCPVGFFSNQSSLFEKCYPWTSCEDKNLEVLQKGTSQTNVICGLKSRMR

B1: the binding result in assay [1] was “binds”.
As to B2, in assay [2], the “EC50 upon Protein L crosslinking, NF-κB luciferase assay (HEK.FRT.luc.mCD137)” value turned out to be 1.44 nM and the “fold-change in activity upon crosslinking, NF-κB luciferase assay (HEK.FRT.luc.mCD137)” value was found to be 27 fold. The binding result in [3] is listed as “no binding (tested: at least 1 µM)”. The binding result in [4] was “no binding (tested: at least 1 µM)”. In assay [5], the “+XL EC50 (nM), mouse CD137 DO11.10 T cell activation assay” value (shortened to “+XL EC50 (nM)”) worked out at 0.39 nM and the “+XL Emax (IL-2 pg/ml), mouse CD137 DO11.10 T cell activation assay” value (“+XL Emax (IL-2 pg/ml)” for short) stood at 24200 pg/mL.
B3: in the assay with mCD137-mFc-Avi [6], the “fold decrease in binding strength against FS22-053-014” value was determined as 2 fold. In assay [5], the “+XL EC50 (nM)” value came out at 16.7 nM and the “+XL Emax (IL-2 pg/ml)” value came out at 41000 pg/mL.
As usually defined, the Kd is the equilibrium constant for the complex coming apart. For the molecule B4, the binding result with human GITR, with human OX40 and in the assay with human CD40 was “no binding (tested: 1 µM)” in each case. Also, the Kd was determined as 3.2 nM with hCD137-mFc-Avi, 24 nM in the assay with mCD137-mFc-Avi [7] and 0.9 nM with cCD137-mFc-Avi. Besides, the “Human monomeric CD137 KD fold difference relative to human dimeric KD” value with hCD137-Avi-His came to 100 fold. For the same molecule, the “+XL EC50 (nM)” value in assay [5] came out at 2.04 nM. For the same molecule, the “+XL Emax (IL-2 pg/ml)” value in assay [5] is 28100 pg/mL.
